Test results as given in patent US20220064648, “NOVEL X-[…] FOR THE USE IN DETECTION OF SNAP25” (Galderma Holding S.A., published 2022).

Legend:
Test in all cases: ELONA
[1] = biological target: SNAP25 Peptide 4 (PEP4, BoNT/A cleavage site region) (Homo sapiens, UniProt P60880 SEQ:1-24); conditions: label: biotin
[2] = biological target: T1, SNAP25 Peptide 1 (PEP1) (Homo sapiens, UniProt P60880 SEQ:1-35)
T1 chain: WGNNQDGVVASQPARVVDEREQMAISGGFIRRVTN
Excerpt: (§1) The data in Table 2 was collected by running direct ELISA assays on the 96 X-aptamers, elucidating their ability to bind SNAP25, SNAP25 fragments (PEP1, PEP2, PEP3, and PEP4), and a negative control. The X-aptamers were biotinylated and immobilized onto streptavidin-coated plates and were utilized as detection molecules. Higher numbers represent strong binding. The negative control peptide is a random peptide to measure the amount of binding that occurs to a random amino acid sequence.

[3] = biological target: T2, SNAP25 Peptide 2 (PEP2) (Homo sapiens, UniProt P60880 SEQ:1-37)
T2 chain: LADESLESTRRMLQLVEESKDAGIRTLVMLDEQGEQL
Excerpt: as §1

SNAP25 Peptide 4 (PEP4, BoNT/A cleavage site region), sequence (P60880 174-197): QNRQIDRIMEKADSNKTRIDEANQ

Row | Binder | binding signal [1] | binding signal [3] | other results
1 | PEP 4.09 (ssDNA) DNA: TTTTTAACACGACATATGTTCGACGGACACAGTGTGTGGCGGTCGTGCCATG | 85 ELISA signal | – | –
2 | PEP 1.20 (ssDNA, W indole, X amine, Y phenol modified dU [19,24]) DNA: TTTTTAACACGACGAACCTGTGCTCAACACAGAACATCACAGTGGGCCCATG | – | – | binding signal [2]: 188 ELISA signal
3 | PEP 1.24 (ssDNA, W indole, X amine, Y phenol modified dU [19,36,38,43,46]) DNA: TTTTTAACACGACCGCCCTGTGGGCAACACAGGGATCTGCAGTCGTGCCATG | – | – | binding signal [2]: 160 ELISA signal
4 | PEP 2.04 (ssDNA, W indole, X amine, Y phenol modified dU [15,19,24,27,40,43,46]) DNA: TTTTTAACACGACATGGCTGTGGTCATCACAGCGCACCATTGTCGTGCCATG | – | 190 ELISA signal | –
5 | PEP 1.23 (ssDNA, W indole, X amine, Y phenol modified dU [14,15,19,25,38,43,46]) DNA: TTTTTAAGCCCACTTCACTGTGGCTCGCACAGGCCGATGGGGTCGTGCCATG | – | – | binding signal [2]: 168 ELISA signal
6 | PEP 4.11 (ssDNA) DNA: TTTTTAAGCCCACCCGAGTTCGTCCAGCGAACCACGCGCGTGTCGTGCCATG | 67 ELISA signal | – | –
7 | PEP 1.02 (ssDNA, W indole, X amine, Y phenol modified dU [16,19,25,36,43,46]) DNA: TTTTTAACACGACCATCCTGTGCCTCACGAACTCATTGCCCGTCGTGCCATG | – | – | binding signal [2]: 742 ELISA signal
8 | PEP 1.18 (ssDNA, W indole, X amine, Y phenol modified dU [19]) DNA: TTTTTAACACGACCACCCTGTGCAAGGCGAACTCCGTCAAAGTGGGCCCATG | – | – | binding signal [2]: 200 ELISA signal
9 | PEP 4.18 (ssDNA) DNA: TTTTTAACACGACTATTCTGTGAGTCTCGAACTGCGACAACGTGGGCCCATG | 18 ELISA signal | – | –
10 | PEP 1.21 (ssDNA, W indole, X amine, Y phenol modified dU [17,19,24,25]) DNA: TTTTTAAGCCCACCGGTCTGTGGTTCCCACAGTGCATGCGAGTGGGCCCATG | – | – | binding signal [2]: 188 ELISA signal
11 | PEP 1.19 (ssDNA, W indole, X amine, Y phenol modified dU [15,19,34,43,46]) DNA: TTTTTAACACGACATAGCTGTGACAGGCACAGGTCATGGGAGTCGTGCCATG | – | – | binding signal [2]: 200 ELISA signal
12 | PEP 2.08 (ssDNA, W indole, X amine, Y phenol modified dU [15,16,17,19,20,24,27,43,46]) DNA: TTTTTAAGCCCACGTTTGTTCGGTGGTCACAGCACGCCACGGTCGTGCCATG | – | 65 ELISA signal | –
13 | PEP 2.16 (ssDNA, W indole, X amine, Y phenol modified dU [15,19,20,24,27,35,38]) DNA: TTTTTAAGCCCACATAGGTTCGGTGGTCACAGTGTGGTGCGGTGGGCCCATG | – | 31 ELISA signal | –
14 | PEP 4.06 (ssDNA) DNA: TTTTTAAGCCCACGAGAGTTCGATAGTCACAGATTGGCACCGTCGTGCCATG | 131 ELISA signal | – | –
15 | PEP 4.22 (ssDNA) DNA: TTTTTAAGCCCACGGTGCTGTGGAAGCCACAGTACAATGGAGTGGGCCCATG | 17 ELISA signal | – | –
16 | PEP 4.10 (ssDNA) DNA: TTTTTAAGCCCACAAGACTGTGCGTCGCACAGATTGGCATCGTCGTGCCATG | 76 ELISA signal | – | –
17 | PEP 2.14 (ssDNA, W indole, X amine, Y phenol modified dU [17,19,24]) DNA: TTTTTAAGCCCACGGGTCTGTGGTCACCGAACGACGTGGCAGTGGGCCCATG | – | 36 ELISA signal | –
18 | PEP 2.02 (ssDNA, W indole, X amine, Y phenol modified dU [15,19,20,24,27,34,35,43,46]) DNA: TTTTTAAGCCCACATACGTTCGATGGTCACAGATTGGGCAAGTCGTGCCATG | – | 394 ELISA signal | –
19 | PEP 2.01 (ssDNA, W indole, X amine, Y phenol modified dU [15,16,19,24,35,43,46]) DNA: TTTTTAACACGACGTTACTGTGGTCACCACAGGATGAGCCTGTCGTGCCATG | – | 592 ELISA signal | –
20 | PEP 2.17 (ssDNA, W indole, X amine, Y phenol modified dU [15,16,19,24,35,43,46]) DNA: TTTTTAACACGACGTTACTGTGGTCACCACAGGATGAGGCTGTCGTGCCATG | – | 30 ELISA signal | –
21 | PEP 2.15 (ssDNA, W indole, X amine, Y phenol modified dU [15,16,19,24,35,40,43,46]) DNA: TTTTTAACACGACGTTACTGTGGTCACCACAGGATGAGCTTGTCGTGCCATG | – | 36 ELISA signal | –
22 | PEP 2.09 (ssDNA, W indole, X amine, Y phenol modified dU [15,19,20,24,27,35,38,40]) DNA: TTTTTAACACGACATAGGTTCGCTGGTCACAGAATGTTGTGGTGGGCCCATG | – | 46 ELISA signal | –
23 | PEP 1.22 (ssDNA, W indole, X amine, Y phenol modified dU [14,15,19,20]) DNA: TTTTTAACACGACTTGGGTTCGGAAGGCGAACCGCAGCAATGTGGGCCCATG | – | – | binding signal [2]: 184 ELISA signal
24 | PEP 1.01 (ssDNA, W indole, X amine, Y phenol modified dU [19,34,35]) DNA: TTTTTAACACGACGCGACTGTGAGAGGCACAGTTTGGGGGCGTGGGCCCATG | – | – | binding signal [2]: 2240 ELISA signal

Row | Binder | binding signal [1] | binding signal [3] | other results
25 | PEP 4.15 (ssDNA) DNA: TTTTTAACACGACGTGACTGTGAGAGGCACAGTTTGGGGGCGTGGGCCCATG | 37 ELISA signal | – | –
26 | PEP 2.03 (ssDNA, W indole, X amine, Y phenol modified dU [16,19,24,27,43,46]) DNA: TTTTTAACACGACGGTGCTGTGCTGGTCACAGCACGCGCGCGTCGTGCCATG | – | 221 ELISA signal | –
27 | PEP 4.13 (ssDNA) DNA: TTTTTAAGCCCACGGCCGTTCGGCCACCACAGTGTGGCAGCGTCGTGCCATG | 57 ELISA signal | – | –
28 | PEP 4.05 (ssDNA) DNA: TTTTTAAGCCCACATAAGTTCGCAAGTCACAGCGATGTGATGTCGTGCCATG | 170 ELISA signal | – | –
29 | PEP 2.11 (ssDNA, W indole, X amine, Y phenol modified dU [14,15,19,27]) DNA: TTTTTAAGCCCACTTGGCTGTGCACATCACAGAACAAGCAGGTGGGCCCATG | – | 40 ELISA signal | –
30 | PEP 2.10 (ssDNA, W indole, X amine, Y phenol modified dU [14,19,24,35,40]) DNA: TTTTTAAGCCCACTGGCCTGTGGTCAGCGAACTGTGCGCTGGTGGGCCCATG | – | 43 ELISA signal | –
31 | PEP 4.20 (ssDNA) DNA: TTTTTAAGCCCACACGTGTTCGGATCGCACAGTTATTGGCAGTCGTGCCATG | 18 ELISA signal | – | –
32 | PEP 4.14 (ssDNA) DNA: TTTTTAAGCCCACAAAAGTTCGGGCAGCACAGGTCGCTGAGGTCGTGCCATG | 37 ELISA signal | – | –
33 | PEP 2.05 (ssDNA, W indole, X amine, Y phenol modified dU [16,19,24,43,46]) DNA: TTTTTAAGCCCACCCTACTGTGGTCACCACAGTGCAAGCCCGTCGTGCCATG | – | 159 ELISA signal | –
34 | PEP 4.02 (ssDNA) DNA: TTTTTAAGCCCACTACTGTTCGAAGGGCACAGTCCAGGCCGGTGGGCCCATG | 208 ELISA signal | – | –
35 | PEP 4.01 (ssDNA) DNA: TTTTTAAGCCCACAAGCGTTCGGCTCTCACAGATCGTTGACGTGGGCCCATG | 257 ELISA signal | – | –
36 | PEP 4.19 (ssDNA) DNA: TTTTTAAGCCCACAAGCGTTCGGCTCTCATAGATCGTTGACGTGGGCCCATG | 18 ELISA signal | – | –
37 | PEP 4.04 (ssDNA) DNA: TTTTTAAGCCCACGATCCTGTGCTTCGCACAGCTCGAGCTAGTGGGCCCATG | 186 ELISA signal | – | –
38 | PEP 4.07 (ssDNA) DNA: TTTTTAAGCCCACTCGTGTTCGCACACCGAACCACAAGCTAGTGGGCCCATG | 105 ELISA signal | – | –
39 | PEP 2.07 (ssDNA, W indole, X amine, Y phenol modified dU [15,19,24,36,43,46]) DNA: TTTTTAACACGACGTCGCTGTGGTCAACGAACAGATACAACGTCGTGCCATG | – | 65 ELISA signal | –
40 | PEP 2.12 (ssDNA, W indole, X amine, Y phenol modified dU [14,19,23,25,38,40,43,46]) DNA: TTTTTAACACGACTAGACTGTGTATCCCACAGGGCAATGTGGTCGTGCCATG | – | 37 ELISA signal | –
41 | PEP 4.12 (ssDNA) DNA: TTTTTAACACGACAGCCCTGTGCAGGCCGAACGGCGTTGATGTCGTGCCATG | 61 ELISA signal | – | –
42 | PEP 2.06 (ssDNA, W indole, X amine, Y phenol modified dU [19,24,35,38,40,43,46]) DNA: TTTTTAACACGACCGGCCTGTGGTCAGCACAGACTGTTGTGGTCGTGCCATG | – | 102 ELISA signal | –
43 | PEP 4.21 (ssDNA) DNA: TTTTTAAGCCCACGGGGCTGTGAGCAACGAACATTGGCACAGTCGTGCCATG | 18 ELISA signal | – | –
44 | PEP 4.16 (ssDNA) DNA: TTTTTAACACGACAGACCTGTGATGGTCGAACTCCATGCATGTGGGCCCATG | 35 ELISA signal | – | –
45 | PEP 4.03 (ssDNA) DNA: TTTTTAACACGACAGGGGTTCGTAGGACACAGGTTGATGTTGTGGGCCCATG | 202 ELISA signal | – | –
46 | PEP 4.17 (ssDNA) DNA: TTTTTAAGCCCACGCCAGTTCGGTCAACGAACTACGGTGATGTGGGCCCATG | 24 ELISA signal | – | –
47 | PEP 4.08 (ssDNA) DNA: TTTTTAACACGACCATTCTGTGCCAGCCGAACTCCGTGCTGGTGGGCCCATG | 94 ELISA signal | – | –
48 | PEP 2.13 (ssDNA, W indole, X amine, Y phenol modified dU [15,19,24,27,34,35,43,46]) DNA: TTTTTAAGCCCACATGCCTGTGGTCATCGAACATTGGGCCGGTCGTGCCATG | – | 36 ELISA signal | –
